According to paper PMC5816164 (Proceedings of the National Academy of Sciences of the …, 2018):
Bridge positions count the residues as written; N and C are the ends. Ends that are not written are not given here.

Tests used:
mice hippocampi = assay: Acetylcholine quantification in hippocampus after microinjection; format: in vivo, mouse
bronchial rings = test system: bronchial rings; set-up: species or system Sprague-Dawley rats
C57BL/6J mice = assay: Microinjection into the hippocampus of mice; format: in vivo, mouse; settings: 1 μL of 20 μM SsTx and 40 μM retigabine mixture in the hippocampus
thoracic aorta = test system: thoracic aorta; set-up: species or system Sprague-Dawley rats
KCNQ4 = KCNQ4 (Homo sapiens, UniProt P56696); assay: Whole-cell patch clamp of KCNQ4 currents in HEK293T cells; format: cell-based; settings: for effect of alanine substitution on inhibition of KCNQ4: 10 μM and 50 μM toxin mutants compared with WT SsTx (Fig. 2 A and B); for effect of conservative replacement on inhibition of KCNQ channels: 10 μM toxin, KCNQ4 currents (Fig. S2D)
Sequence of KCNQ4 (P56696 whole entry): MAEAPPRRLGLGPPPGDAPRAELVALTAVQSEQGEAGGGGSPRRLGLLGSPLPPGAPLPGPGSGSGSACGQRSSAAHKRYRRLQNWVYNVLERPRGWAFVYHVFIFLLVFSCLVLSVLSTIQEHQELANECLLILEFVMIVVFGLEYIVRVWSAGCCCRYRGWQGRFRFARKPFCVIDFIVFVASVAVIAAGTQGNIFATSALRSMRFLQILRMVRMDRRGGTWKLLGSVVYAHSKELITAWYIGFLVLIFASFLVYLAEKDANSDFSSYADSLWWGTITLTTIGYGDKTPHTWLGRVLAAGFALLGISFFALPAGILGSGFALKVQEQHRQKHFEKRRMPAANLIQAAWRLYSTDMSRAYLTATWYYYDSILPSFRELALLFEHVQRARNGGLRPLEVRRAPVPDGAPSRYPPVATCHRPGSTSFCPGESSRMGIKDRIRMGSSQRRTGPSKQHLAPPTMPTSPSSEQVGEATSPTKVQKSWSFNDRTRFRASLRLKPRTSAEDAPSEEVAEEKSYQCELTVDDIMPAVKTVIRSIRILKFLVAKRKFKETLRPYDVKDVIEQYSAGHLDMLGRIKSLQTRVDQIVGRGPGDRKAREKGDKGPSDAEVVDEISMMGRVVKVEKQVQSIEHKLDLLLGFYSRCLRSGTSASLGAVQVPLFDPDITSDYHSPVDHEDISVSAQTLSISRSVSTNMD

KCNQ4_D288A = KCNQ4_D288A (UniProt P56696)
Sequence of KCNQ4_D288A (P56696 whole entry D288A): as the sequence (P56696 whole entry) above, with D288A counted along it

KCNQ4_D266G = KCNQ4_D266G (UniProt P56696)
Sequence of KCNQ4_D266G (P56696 whole entry D266G): as the sequence (P56696 whole entry) above, with D266G counted along it

`O=C1N(c2ccccc2)c2ccccc2C1(Cc1ccncc1)Cc1ccncc1` [linopirdine] was tested, and the “increase of acetylcholine concentration” value (mice hippocampi; mice hippocampi, 1 μL of 100 μM, 30 min after microinjection, n = 6) was about 81.8%.

In the case of `CCOC(=O)Nc1ccc(NCc2ccc(F)cc2)cc1N` [retigabine], the “effect on bronchial ring contraction induced by crude venom or SsTx” value (bronchial rings) is reported as “contraction can be reduced by retigabine”, the “effect on SsTx-induced seizure” value (C57BL/6J mice) is reported as “inhibited” and the “effect on vessel toxicity induced by centipede crude venom and SsTx” value (thoracic aorta) is reported as “significantly reduced”. For the same molecule, the “effect on SsTx-induced increase in acetylcholine secretion” value (mice hippocampi; mixture of 10 μM SsTx and 40 μM RTG, n = 3) was “inhibited the SsTx-induced increase in spiking frequency and acetylcholine secretion”.

In the case of “K10A: SsTx single point mutant, alanine substitution of K10 (EVIKKDTPYAKRKFPYKSECLKACATSFTGGDESRIQEGKPGFFKCTCYFTTG)”, the “effect of alanine substitution on inhibition of KCNQ4” value (shortened to “effect … on inhibition of KCNQ4”) (KCNQ4) is reported as “reduces the toxin’s inhibitory effect on KCNQ4”.

In the case of “K11A: SsTx single point mutant, alanine substitution of K11 (EVIKKDTPYKARKFPYKSECLKACATSFTGGDESRIQEGKPGFFKCTCYFTTG)”, the “effect … on inhibition of KCNQ4” value (KCNQ4) is reported as “reduces the toxin’s inhibitory effect on KCNQ4”.

In the case of “K13A: SsTx single point mutant, alanine substitution of K13 (EVIKKDTPYKKRAFPYKSECLKACATSFTGGDESRIQEGKPGFFKCTCYFTTG; ends and bridges not checked; cysteine pairing not given here)”, the “effect … on inhibition of KCNQ4” value (KCNQ4) is reported as “reduces the toxin’s inhibitory effect on KCNQ4”.

In the case of “K13R: SsTx point mutant, lysine 13 replaced with arginine (EVIKKDTPYKKRRFPYKSECLKACATSFTGGDESRIQEGKPGFFKCTCYFTTG; ends and bridges not checked; cysteine pairing not given here)”, the “effect of conservative replacement on inhibition of KCNQ channels” value (KCNQ4) is reported as “minimal influence on SsTx inhibition of KCNQ channels”.

In the case of “R12A: SsTx single point mutant, alanine substitution of R12 (EVIKKDTPYKKAKFPYKSECLKACATSFTGGDESRIQEGKPGFFKCTCYFTTG; ends and bridges not checked; cysteine pairing not given here)”, the “effect … on inhibition of KCNQ4” value (KCNQ4) is reported as “reduces the toxin’s inhibitory effect on KCNQ4”.

With “R12K: SsTx point mutant, arginine 12 replaced with lysine (EVIKKDTPYKKKKFPYKSECLKACATSFTGGDESRIQEGKPGFFKCTCYFTTG; ends and bridges not checked; cysteine pairing not given here)” the “effect of conservative replacement on inhibition of KCNQ channels” value (KCNQ4) was “minimal influence on SsTx inhibition of KCNQ channels”.

B1: Ssm Spooky Toxin (SsTx) (peptide)
chain: EVIKKDTPYKKRKFPYKSECLKACATSFTGGDESRIQEGKPGFFKCTCYFTTG
modifications: disulfide 20-46, 24-48
In the case of B1, the inhibitory activity lost in the presence of 10 μM SsTx, against WT KCNQ4 (KCNQ4_D288A) is reported as 97% and the inhibitory activity lost in the presence of 10 μM SsTx, against WT KCNQ4 (KCNQ4_D266G) is reported as 99%.
